According to paper PMC9482650, “Quantitative fragmentomics allow affinity mapping of interactomes” (Nature Communications, 2022):

T1: MPDZ_10, O75970
T1 sequence (O75970 1624-1722, limits assumed, looked up): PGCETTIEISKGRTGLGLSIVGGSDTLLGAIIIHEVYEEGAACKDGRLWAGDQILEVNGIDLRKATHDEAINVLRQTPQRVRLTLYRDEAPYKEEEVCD

T2: SNTG2, Q9NY99
T2 sequence (Q9NY99 68-166, limits assumed, looked up): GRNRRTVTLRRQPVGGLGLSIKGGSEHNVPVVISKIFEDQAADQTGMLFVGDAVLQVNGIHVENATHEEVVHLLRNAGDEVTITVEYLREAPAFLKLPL

T3: DFNB31_1, Q9P202
T3 sequence (Q9P202 135-233, limits assumed, looked up): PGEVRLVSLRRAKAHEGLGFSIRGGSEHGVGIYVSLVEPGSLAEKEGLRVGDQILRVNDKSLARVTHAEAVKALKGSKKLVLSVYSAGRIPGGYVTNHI

T4: TIAM2, Q8IVF5
T4 sequence (Q8IVF5 885-986, limits assumed, looked up): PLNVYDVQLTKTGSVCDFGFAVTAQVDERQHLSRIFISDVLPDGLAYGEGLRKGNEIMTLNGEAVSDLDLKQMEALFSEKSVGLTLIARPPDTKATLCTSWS

T5: RAPGEF6, Q8TEU7
T5 sequence (Q8TEU7 525-625, limits assumed, looked up): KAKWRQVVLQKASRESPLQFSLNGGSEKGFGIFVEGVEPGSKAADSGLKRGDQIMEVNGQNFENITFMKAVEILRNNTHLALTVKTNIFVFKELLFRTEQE

T6: SNTA1, Q13424
T6 sequence (Q13424 82-180, limits assumed, looked up): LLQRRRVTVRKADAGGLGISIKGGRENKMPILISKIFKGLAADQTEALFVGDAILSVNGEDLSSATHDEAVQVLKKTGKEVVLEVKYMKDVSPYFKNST

T7: DLG3_2, Q92796
T7 sequence (Q92796 221-321, limits assumed, looked up): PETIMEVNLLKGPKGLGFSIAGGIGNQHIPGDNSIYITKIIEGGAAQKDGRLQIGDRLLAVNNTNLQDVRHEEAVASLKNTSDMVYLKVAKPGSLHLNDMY

T8: HTRA4, P83105
T8 sequence (P83105 378-476, limits assumed, looked up): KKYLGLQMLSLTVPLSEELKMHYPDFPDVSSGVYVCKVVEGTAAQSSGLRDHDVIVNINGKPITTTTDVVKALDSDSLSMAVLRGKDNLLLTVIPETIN

T9: SNTG1, Q9NSN8
T9 sequence (Q9NSN8 52-150, limits assumed, looked up): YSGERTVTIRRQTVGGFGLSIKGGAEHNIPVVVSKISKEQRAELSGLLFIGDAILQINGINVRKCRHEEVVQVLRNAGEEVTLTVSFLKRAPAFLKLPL

T10: LIN7B, Q9HAP6
T10 sequence (Q9HAP6 88-185, limits assumed, looked up): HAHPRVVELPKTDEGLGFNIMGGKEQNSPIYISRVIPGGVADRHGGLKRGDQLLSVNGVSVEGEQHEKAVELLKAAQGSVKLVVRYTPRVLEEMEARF

T11: NHERF3_1, Q5T2W1
T11 sequence (Q5T2W1 4-100, limits assumed, looked up): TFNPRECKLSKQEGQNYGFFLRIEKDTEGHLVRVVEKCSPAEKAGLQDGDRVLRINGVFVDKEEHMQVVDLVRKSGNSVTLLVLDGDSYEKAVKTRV


Tests used:
Assay in all cases: holdup assay
Set-up in all cases: key: below the threshold = too weak to quantify, mostly under pKd 3.1 to 4
Conditions in all cases: plain residues with an end cap or a label only (N-terminal biotin on a linker: ado-ado)
DLG4_3, P78352 = target: DLG4_3, P78352
MPDZ_10, O75970 = target: T1, MPDZ_10, O75970
SNTG2, Q9NY99 = target: T2, SNTG2, Q9NY99
IL16_4, Q14005 = target: IL16_4, Q14005
DFNB31_1, Q9P202 = target: T3, DFNB31_1, Q9P202
Inadl_8, Q8NI35 = target: Inadl_8, Q8NI35
FRMPD2_2, Q68DX3 = target: FRMPD2_2, Q68DX3
GRIP2_5, Q9C0E4 = target: GRIP2_5, Q9C0E4
GOPC, Q9HD26 = target: GOPC, Q9HD26
TIAM2, Q8IVF5 = target: T4, TIAM2, Q8IVF5
IL16_1, Q14005 = target: IL16_1, Q14005
RAPGEF6, Q8TEU7 = target: T5, RAPGEF6, Q8TEU7
PDLIM1, O00151 = target: PDLIM1, O00151
SNTA1, Q13424 = target: T6, SNTA1, Q13424
SCRIB_1, Q14160 = target: SCRIB_1, Q14160
PARD3_3, Q8TEW0 = target: PARD3_3, Q8TEW0
DLG5_1, Q8TDM6 = target: DLG5_1, Q8TDM6
NOS1, P29475 = target: NOS1, P29475
GORASP2, Q9H8Y8 = target: GORASP2, Q9H8Y8
LIMK2, P53671 = target: LIMK2, P53671
DLG3_2, Q92796 = target: T7, DLG3_2, Q92796
HTRA4, P83105 = target: T8, HTRA4, P83105
CASK, O14936 = target: CASK, O14936
SNTG1, Q9NSN8 = target: T9, SNTG1, Q9NSN8
LIN7B, Q9HAP6 = target: T10, LIN7B, Q9HAP6
NHERF3_1, Q5T2W1 = target: T11, NHERF3_1, Q5T2W1

DLG5_1, Q8TDM6, sequence (Q8TDM6 617-713): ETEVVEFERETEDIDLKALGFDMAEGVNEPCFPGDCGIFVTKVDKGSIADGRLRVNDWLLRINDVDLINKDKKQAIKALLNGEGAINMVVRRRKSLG
NOS1, P29475, sequence (P29475 9-101): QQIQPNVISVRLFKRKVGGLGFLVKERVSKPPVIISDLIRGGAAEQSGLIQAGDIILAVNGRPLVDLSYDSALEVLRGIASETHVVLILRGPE
Inadl_8, Q8NI35, sequence (Q8NI35 1425-1530): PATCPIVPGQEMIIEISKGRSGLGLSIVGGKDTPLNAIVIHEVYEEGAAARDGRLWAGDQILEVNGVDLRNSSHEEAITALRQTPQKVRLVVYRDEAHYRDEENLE
LIMK2, P53671, sequence (P53671 143-248): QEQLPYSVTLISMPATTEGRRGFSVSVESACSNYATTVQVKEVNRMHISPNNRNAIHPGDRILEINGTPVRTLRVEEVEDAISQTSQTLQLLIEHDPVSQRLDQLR
IL16_1, Q14005, sequence (Q14005 210-306): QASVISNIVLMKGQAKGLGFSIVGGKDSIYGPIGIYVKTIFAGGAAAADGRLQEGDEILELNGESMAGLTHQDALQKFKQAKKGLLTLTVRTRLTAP
PARD3_3, Q8TEW0, sequence (Q8TEW0 582-685): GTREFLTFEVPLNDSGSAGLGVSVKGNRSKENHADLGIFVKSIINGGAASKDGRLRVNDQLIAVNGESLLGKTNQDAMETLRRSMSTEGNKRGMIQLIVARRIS
IL16_4, Q14005, sequence (Q14005 1229-1329): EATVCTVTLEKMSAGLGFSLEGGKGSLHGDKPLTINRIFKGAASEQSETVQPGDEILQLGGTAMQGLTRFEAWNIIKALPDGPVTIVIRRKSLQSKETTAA
PDLIM1, O00151, sequence (O00151 1-87): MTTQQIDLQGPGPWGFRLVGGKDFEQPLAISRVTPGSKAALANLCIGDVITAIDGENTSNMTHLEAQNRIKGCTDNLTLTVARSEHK
SCRIB_1, Q14160, sequence (Q14160 718-814): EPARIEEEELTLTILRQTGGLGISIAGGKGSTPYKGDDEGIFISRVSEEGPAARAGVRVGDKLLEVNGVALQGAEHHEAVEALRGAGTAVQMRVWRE
FRMPD2_2, Q68DX3, sequence (Q68DX3 944-1038): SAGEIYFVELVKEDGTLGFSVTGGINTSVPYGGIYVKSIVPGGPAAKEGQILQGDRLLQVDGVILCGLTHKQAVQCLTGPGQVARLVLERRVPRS
CASK, O14936, sequence (O14936 487-570): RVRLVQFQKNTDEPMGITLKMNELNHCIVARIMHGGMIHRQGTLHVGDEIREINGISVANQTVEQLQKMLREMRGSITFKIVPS
GRIP2_5, Q9C0E4, sequence (Q9C0E4 544-642): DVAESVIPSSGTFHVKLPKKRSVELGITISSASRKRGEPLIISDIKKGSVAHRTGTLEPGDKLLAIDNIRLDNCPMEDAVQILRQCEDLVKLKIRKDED
DLG4_3, P78352, sequence (P78352 306-403): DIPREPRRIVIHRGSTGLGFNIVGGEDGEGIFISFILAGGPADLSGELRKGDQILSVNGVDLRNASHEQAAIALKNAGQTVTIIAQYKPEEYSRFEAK

Binder	pKd (DLG4_3, P78352)	pKd (MPDZ_10, O75970)	pKd (SNTG2, Q9NY99)	pKd (IL16_4, Q14005)	pKd (DFNB31_1, Q9P202)	pKd (Inadl_8, Q8NI35)	pKd (FRMPD2_2, Q68DX3)	pKd (GRIP2_5, Q9C0E4)	pKd (GOPC, Q9HD26)	pKd (TIAM2, Q8IVF5)	pKd (IL16_1, Q14005)	pKd (RAPGEF6, Q8TEU7)	pKd (PDLIM1, O00151)	pKd (SNTA1, Q13424)	pKd (SCRIB_1, Q14160)	pKd (PARD3_3, Q8TEW0)	pKd (DLG5_1, Q8TDM6)	pKd (NOS1, P29475)	pKd (GORASP2, Q9H8Y8)	pKd (LIMK2, P53671)	other results
PRISRSQSEL [CCDC134, Q9H6E4]	below the threshold	below the threshold	below the threshold	3.8	below the threshold	below the threshold	below the threshold	below the threshold	below the threshold	3.86	below the threshold	below the threshold	below the threshold	below the threshold	below the threshold	below the threshold	below the threshold	below the threshold	below the threshold	below the threshold	pKd (DLG3_2, Q92796): 3.98; pKd (HTRA4, P83105): below the threshold; pKd (CASK, O14936): below the threshold; pKd (SNTG1, Q9NSN8): below the threshold; pKd (LIN7B, Q9HAP6): 3.62; pKd (NHERF3_1, Q5T2W1): 4.42
PAPSSGKDYV [CLDN1, O95832]	below the threshold	below the threshold	below the threshold	below the threshold	below the threshold	3.92	below the threshold	below the threshold	below the threshold	below the threshold	below the threshold	below the threshold	below the threshold	below the threshold	below the threshold	below the threshold	below the threshold	4.06	3.67	below the threshold	pKd (DLG3_2, Q92796): below the threshold; pKd (HTRA4, P83105): below the threshold; pKd (CASK, O14936): below the threshold; pKd (SNTG1, Q9NSN8): below the threshold; pKd (LIN7B, Q9HAP6): below the threshold; pKd (NHERF3_1, Q5T2W1): 4.08
QPCFNKLFPL [LPXN, O60711]	below the threshold	below the threshold	below the threshold	below the threshold	below the threshold	below the threshold	below the threshold	below the threshold	below the threshold	below the threshold	below the threshold	below the threshold	below the threshold	below the threshold	below the threshold	below the threshold	below the threshold	3.5	4	below the threshold	pKd (DLG3_2, Q92796): below the threshold; pKd (HTRA4, P83105): 3.95; pKd (CASK, O14936): below the threshold; pKd (SNTG1, Q9NSN8): below the threshold; pKd (LIN7B, Q9HAP6): below the threshold; pKd (NHERF3_1, Q5T2W1): 4.01
LPHPHSTTRV [NLGN2, Q8NFZ4]	3.82	3.62	4.16	3.7	4.13	4.39	3.59	below the threshold	4.28	below the threshold	below the threshold	below the threshold	below the threshold	4.18	below the threshold	below the threshold	below the threshold	3.63	3.92	below the threshold	pKd (DLG3_2, Q92796): 3.96; pKd (HTRA4, P83105): 3.97; pKd (CASK, O14936): below the threshold; pKd (SNTG1, Q9NSN8): below the threshold; pKd (LIN7B, Q9HAP6): 3.58; pKd (NHERF3_1, Q5T2W1): 3.9

Second part, led by results:

pKd (DLG4_3, P78352)	pKd (MPDZ_10, O75970)	pKd (SNTG2, Q9NY99)	pKd (IL16_4, Q14005)	pKd (DFNB31_1, Q9P202)	pKd (Inadl_8, Q8NI35)	pKd (FRMPD2_2, Q68DX3)	pKd (GRIP2_5, Q9C0E4)	pKd (GOPC, Q9HD26)	pKd (TIAM2, Q8IVF5)	pKd (IL16_1, Q14005)	pKd (RAPGEF6, Q8TEU7)	pKd (PDLIM1, O00151)	pKd (SNTA1, Q13424)	pKd (SCRIB_1, Q14160)	pKd (PARD3_3, Q8TEW0)	pKd (DLG5_1, Q8TDM6)	pKd (NOS1, P29475)	pKd (GORASP2, Q9H8Y8)	pKd (LIMK2, P53671)	Binder	other results
4.2	3.56	5.05	below the threshold	4.86	3.86	5.16	below the threshold	4.22	below the threshold	4.17	3.64	3.6	5.22	4.54	3.85	3.7	4.12	3.51	below the threshold	EVEEFPETSV [TRPV3, Q8NET8]	pKd (DLG3_2, Q92796): 4.22; pKd (HTRA4, P83105): below the threshold; pKd (CASK, O14936): below the threshold; pKd (SNTG1, Q9NSN8): 5.53; pKd (LIN7B, Q9HAP6): 4.3; pKd (NHERF3_1, Q5T2W1): 4.47
below the threshold	3.76	3.66	3.71	below the threshold	3.8	below the threshold	below the threshold	3.98	below the threshold	4.16	below the threshold	below the threshold	4.71	3.77	3.68	below the threshold	3.88	4.16	below the threshold	QGLAERISVL [PRKD2, Q9BZL6]	pKd (DLG3_2, Q92796): below the threshold; pKd (HTRA4, P83105): 4.06; pKd (CASK, O14936): below the threshold; pKd (SNTG1, Q9NSN8): 3.54; pKd (LIN7B, Q9HAP6): below the threshold; pKd (NHERF3_1, Q5T2W1): 4.28
